B1: sPD-1 V2 Fc (Fc fusion)
chain: LDSPDRPWNPPTFSPALLVVTEGDNATFTCSFSNTSEGFVLNWYRMSPSNQTDKLAAFPEDRGQLGQDCRFRVTQLPNGRDFHMSVVRARRNDSGTYLCSAIVLAPKIQIKESLRVELRVTERRAEVPTAHPSPSPRPAGQFQTLV
B2: human PD-L2 (#10292-H08H, SinoBiological) (ligand)
chain: LFTVTVPKELYIIEHGSNVTLECNFDTGSHVNLGAITASLQKVENDTSPHRERATLLEEQLPLGKASFHIPQVQVRDEGQYQCIIIYGVAWDYKYLTLKVKASYRKINTHILKVPETDEVELTCQATGYPLAEVSWPNVSVPANTSHSRTPEGLYQVTSVLRLKPPPGRNFSCVFWNTHVRELTLASIDLQSQMEPRTHPT

Key:
[1] = molecular target: mouse PD-L1 in wild-type parental MC38 cells (mouse (endogenous in MC38), UniProt Q9EP73 19-290); assay: flow cytometry on cells
sPD-1 V1 Fc (human) = sPD-1 V1 Fc (human) (UniProt Q15116); assay: SPR

Sequence of mouse PD-L1 in wild-type parental MC38 cells (Q9EP73 19-290): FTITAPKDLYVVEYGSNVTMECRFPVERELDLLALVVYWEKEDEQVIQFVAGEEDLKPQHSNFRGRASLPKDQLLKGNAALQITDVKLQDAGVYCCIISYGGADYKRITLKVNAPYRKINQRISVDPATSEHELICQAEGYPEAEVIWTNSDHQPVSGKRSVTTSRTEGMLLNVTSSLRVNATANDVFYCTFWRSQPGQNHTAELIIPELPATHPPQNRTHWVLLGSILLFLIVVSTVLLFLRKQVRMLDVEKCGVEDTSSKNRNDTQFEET

| Binder | fold increase in binding signal over wild-type sPD-1 [1] | fold improvement in binding affinity over wild type sPD-1 (sPD-1 V1 Fc (human)) |
| --- | --- | --- |
| B1 | ~4 fold | – |
| B2 | – | 200 fold |

Reference: paper doi:10.1101/2020.01.19.911941 (bioRxiv, 2020)
